B1: VH:VL chains; a variant is named by its letters at X, in order (parent)
chain 1: QVQLVQSGAEVKKPGASVKVSCKASGYTFTDYXMHWVRQAPGQGLEWMGXVNPNXXXTTYNQKFEGRVTMTTDTSTSTAYMELRSLRSDDTAVYYCARXNXLDXWGQGTTVTVSS
chain 2: DIQMTQSPSSLSASVGDRVTITCSVSSSVSSIYLHWYQQKPGKAPKLLIYSTSNLASGVPSRFSGSGSGTDFTLTISSLQPEDFATYYCQVYSGYPLTFGGGTKVEIK

Variants of: B1
Experiment: yeast display scFab, FACS + sequencing
How it was run: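 The non-specific binding call was based on sorted and sequenced yeast displaying a heavy-chain CDR mutant scFab library. Labelling used anti-Myc with biotinylated ovalbumin (260 μg/mL in PBSB, 3 h, room temperature) or soluble membrane proteins (130 μg/mL, 20 min on ice), and FACS collected the top 25% and bottom 10% of binders in two replicates. Positive meant present in ≥3 of 4 pooled positive samples and in no negatives, and negative meant the converse.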

| Variant | non-specific binding call |
| --- | --- |
| VATGDFGV | no binding |
| DARGGAAV | no binding |
| FARKSFGS | binds |
| FARGGDAV | no binding |
| DATGGDGA | no binding |
| DATGGDGV | no binding |
| DATGGDGY | no binding |
| DATGGDGS | no binding |
| YARRGSLD | binds |
| FATRASGD | binds |
| DATGGSSY | no binding |
| DATGGSSS | no binding |
| DATGGSSA | no binding |
| DATGGSSV | no binding |
| FARKSYGA | binds |
| YATGDDGV | no binding |
| YARTGFGA | binds |
| VATGSSGA | no binding |
| YATGDDVA | no binding |
| DARGGSLD | no binding |
| DARGGSLS | no binding |
| VATGDDWV | no binding |
| DATRGAGD | no binding |

| Variant | non-specific binding call |
| --- | --- |
| DATRGAGY | no binding |
| YARRGSGV | binds |
| VATRAVGA | binds |
| SARTDFWF chain 1 K19N | binds |
| DARRGSGD | no binding |
| YATEDSGF | no binding |
| YATGGYAV | no binding |
| DARGGDWV | no binding |
| YARGGDLD | no binding |
| YATAADAD | no binding |
| AATGSAWA | no binding |
| DATGGYAV | no binding |
| FATEGASA | no binding |
| VATGDDVA | no binding |
| VATGDDVY | no binding |
| VATGDDVD | no binding |
| DARGGSSV | no binding |
| DARGGSSS | no binding |
| DARGGSSA | no binding |
| DARGGSSY | no binding |
| DATGGDVD | no binding |
| DATGGDVF | no binding |
| DATGGDVY | no binding |

| Variant | non-specific binding call |
| --- | --- |
| DATGGDVV | no binding |
| DATGGDVA | no binding |
| DATGGALD | no binding |
| SARGGYWY | binds |
| DARGGDVY | no binding |
| SARTDFWF | binds |
| DARRGAGV | no binding |
| DATGGDWA | no binding |
| FARGGSAD | no binding |
| FARKSDSS | no binding |
| YATEAFSD | binds |
| DATGGASD | no binding |
| YATEGVWV | binds |
| DATEDDSA | no binding |
| DATGGFGV | no binding |
| DATGGDAD | no binding |
| VATGDSLV | no binding |
| FATKGAWV | binds |
| YATEDDWV | no binding |
| DATGGSVD | no binding |
| VATRGYLV | binds |
| DARGAYLV | no binding |
| DATGGAGD | no binding |

| Variant | non-specific binding call |
| --- | --- |
| SARKGDVA | no binding |
| YATRGAAA | binds |
| DARGGAVV | no binding |
| DARGGAVY | no binding |
| VARKGVGV | binds |
| YATAADWD | no binding |
| FARGASGV | binds |
| YARGGAGA | no binding |
| YARGTAVD | binds |
| DATGGAAA | no binding |
| AATRNVGV | binds |
| DARGGFGV | no binding |
| DARGGAGA | no binding |
| YATKGAWA | binds |
| DATGGSLD | no binding |
| YARRAAVS | binds |
| FARGGYVA | binds |
| AATTDAGD | no binding |
| VATRGFWD | no binding |
| DATGGSGA | no binding |
| DATGGSGD | no binding |
| FATKGFGD | binds |
| DARGGDGS | no binding |

| Variant | non-specific binding call |
| --- | --- |
| SARRGDWA | binds |
| DATGNVWS | binds |
| DATRSSWD | no binding |
| VATKGFVV | no binding |
| VARGGSVD | no binding |
| AATTDDAV | no binding |
| FATGSDGA | no binding |
| DARGGDAA | no binding |
| SATKTVVV | binds |
| DARGGSAD | no binding |
| FATGGSGD | binds |
| VATGGYAV | no binding |
| DATGGAVA | no binding |
| YARRDVGA | binds |
| YATKGFGD | binds |
| FARKGDGV | no binding |
| YARRGDGA | binds |
| FARKGSGA | binds |
| AATTDSGV | no binding |
| AATTDSGD | no binding |
| VATGDDGV | no binding |

From the emibetuzumab library of Makowski et al. (2022)
